T1: recombinant mouse LRP5-His chimera (mouse, UniProt Q91VN0 31-1383)
T1 construct: extracellular domain; also called ECD of mouse LRP5; not shown: His tag
T1 sequence (looked up): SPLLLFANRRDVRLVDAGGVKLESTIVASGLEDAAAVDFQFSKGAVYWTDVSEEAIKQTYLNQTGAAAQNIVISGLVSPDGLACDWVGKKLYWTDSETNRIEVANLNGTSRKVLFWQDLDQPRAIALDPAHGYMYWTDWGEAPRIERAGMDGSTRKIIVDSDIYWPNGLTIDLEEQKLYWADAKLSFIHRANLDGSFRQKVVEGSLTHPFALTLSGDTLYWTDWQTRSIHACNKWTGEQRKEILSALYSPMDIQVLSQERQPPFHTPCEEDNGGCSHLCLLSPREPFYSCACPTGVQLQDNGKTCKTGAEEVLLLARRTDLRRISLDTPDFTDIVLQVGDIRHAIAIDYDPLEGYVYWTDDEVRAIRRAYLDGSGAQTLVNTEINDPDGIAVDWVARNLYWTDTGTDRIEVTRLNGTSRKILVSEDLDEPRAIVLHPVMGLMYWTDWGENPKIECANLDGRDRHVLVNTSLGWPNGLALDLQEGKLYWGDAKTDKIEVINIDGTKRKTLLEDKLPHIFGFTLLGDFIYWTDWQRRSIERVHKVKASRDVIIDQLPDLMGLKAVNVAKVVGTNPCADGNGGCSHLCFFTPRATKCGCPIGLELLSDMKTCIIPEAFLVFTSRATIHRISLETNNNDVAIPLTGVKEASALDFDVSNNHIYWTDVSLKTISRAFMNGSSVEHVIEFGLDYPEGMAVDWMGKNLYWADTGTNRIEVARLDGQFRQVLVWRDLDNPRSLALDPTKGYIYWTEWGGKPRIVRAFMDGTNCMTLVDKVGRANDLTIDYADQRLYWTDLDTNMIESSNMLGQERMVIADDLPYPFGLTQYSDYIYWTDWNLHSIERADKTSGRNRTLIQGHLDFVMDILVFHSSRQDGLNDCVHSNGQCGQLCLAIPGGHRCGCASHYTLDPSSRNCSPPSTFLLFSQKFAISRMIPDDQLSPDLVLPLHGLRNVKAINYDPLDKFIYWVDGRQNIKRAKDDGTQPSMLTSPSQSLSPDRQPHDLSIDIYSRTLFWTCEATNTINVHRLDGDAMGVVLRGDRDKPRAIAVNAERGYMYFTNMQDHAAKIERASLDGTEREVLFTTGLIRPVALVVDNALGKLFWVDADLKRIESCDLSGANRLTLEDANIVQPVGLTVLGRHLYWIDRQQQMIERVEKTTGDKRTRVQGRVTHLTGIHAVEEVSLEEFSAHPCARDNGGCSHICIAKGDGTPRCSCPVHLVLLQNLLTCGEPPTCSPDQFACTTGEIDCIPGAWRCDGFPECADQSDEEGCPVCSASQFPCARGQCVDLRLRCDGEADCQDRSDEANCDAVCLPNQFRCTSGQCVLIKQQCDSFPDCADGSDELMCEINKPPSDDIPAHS

T2: recombinant human LRP6-Fc chimera (human, UniProt O75581 20-1370)
T2 construct: extracellular domain; also called ECD of human LRP6; not shown: Fc part of the chimera
T2 sequence (looked up): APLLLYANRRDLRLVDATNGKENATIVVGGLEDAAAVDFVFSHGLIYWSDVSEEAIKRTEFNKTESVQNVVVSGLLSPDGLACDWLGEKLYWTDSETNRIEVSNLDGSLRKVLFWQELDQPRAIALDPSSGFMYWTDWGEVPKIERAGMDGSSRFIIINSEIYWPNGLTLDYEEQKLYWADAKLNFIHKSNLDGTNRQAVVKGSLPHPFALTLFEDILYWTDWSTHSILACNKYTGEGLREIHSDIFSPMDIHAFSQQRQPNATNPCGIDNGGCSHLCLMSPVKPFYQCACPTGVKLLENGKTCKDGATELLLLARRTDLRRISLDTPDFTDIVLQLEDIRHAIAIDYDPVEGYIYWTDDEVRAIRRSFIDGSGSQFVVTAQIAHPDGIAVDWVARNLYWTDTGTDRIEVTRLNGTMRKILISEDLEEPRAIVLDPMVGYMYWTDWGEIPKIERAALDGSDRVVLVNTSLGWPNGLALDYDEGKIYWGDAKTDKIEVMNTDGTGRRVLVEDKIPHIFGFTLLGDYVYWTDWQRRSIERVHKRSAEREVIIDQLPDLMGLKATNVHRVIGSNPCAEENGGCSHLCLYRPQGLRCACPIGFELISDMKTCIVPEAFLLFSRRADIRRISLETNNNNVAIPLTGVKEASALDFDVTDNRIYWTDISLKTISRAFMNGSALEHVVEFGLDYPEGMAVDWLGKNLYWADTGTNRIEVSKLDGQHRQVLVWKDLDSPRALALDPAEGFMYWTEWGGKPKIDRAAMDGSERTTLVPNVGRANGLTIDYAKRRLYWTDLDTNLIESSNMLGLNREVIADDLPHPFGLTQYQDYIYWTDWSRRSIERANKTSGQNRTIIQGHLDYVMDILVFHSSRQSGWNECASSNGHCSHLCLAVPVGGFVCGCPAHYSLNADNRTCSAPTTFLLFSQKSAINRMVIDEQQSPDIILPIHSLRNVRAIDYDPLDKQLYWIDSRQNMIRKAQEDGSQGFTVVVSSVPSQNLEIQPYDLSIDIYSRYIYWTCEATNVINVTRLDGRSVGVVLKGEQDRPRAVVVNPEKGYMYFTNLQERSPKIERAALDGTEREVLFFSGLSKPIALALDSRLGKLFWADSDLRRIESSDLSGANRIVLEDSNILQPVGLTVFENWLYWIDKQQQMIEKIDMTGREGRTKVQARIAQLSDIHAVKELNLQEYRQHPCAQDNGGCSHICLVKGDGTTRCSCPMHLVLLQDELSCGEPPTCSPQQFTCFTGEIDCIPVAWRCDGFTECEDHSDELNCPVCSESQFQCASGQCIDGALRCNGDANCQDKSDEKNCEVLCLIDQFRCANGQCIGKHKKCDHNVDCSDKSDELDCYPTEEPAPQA


Experiments:
[1] = target: T1, recombinant mouse LRP5-His chimera; test: single-point ELISA, coated antigen, purified Fab or IgG1, anti-kappa-HRP
Description: FIGS. 1A and 1B show sixteen (16) anti-LRP antibodies. (A) The amino acid sequences of the complementarity determining regions (CDR) of the heavy (H) and the light (L) chains are presented. The antibodies were grouped into unique epitopes as determined by competitive ELISAs. (B) Single-point ELISAs were performed on 96-well Maxisorb immune plates coated with ECD's of mouse LRP5, mouse LRP6 and human LRP6 chimeras. The plates were incubated with the purified Fab or IgG1 at the concentrations indicated followed by incubation with horseradish peroxidase (HRP)-conjugated anti-kappa antibody. The wells were washed eight times followed by incubation with 3,3′,5,5′-tetramethylbenzidine/H₂O₂ peroxidase (TMB) substrate for 5-10 min. The reaction was stopped by adding 1M H₃PO₄ and the absorbance was measured spectrometrically at 450 nm in a microtiter plate reader. FIG. 1A discloses “SSVA” as SEQ ID NO: 34, and “SASSLYS” as SEQ ID NO: 35, as well as SEQ ID NOS 36-49, 51, 44, 2-4, 4, 5-7, 5, 4, 5, 8-10, 4, 52, 55, 11-16, 15, 15, 13, 17-20, 13, 53, 56, 21-23, 22, 24-33, 54, 57, respectively, in order of columns.
(§1) The full length IgG1s and the antibody fragments (Fabs) were purified and a single-point ELISA was done to determine the specificity of the antibodies. […] A multipoint competitive ELISA was used to determine the relative affinities of the antibodies to the recombinant antigen.

[2] = target: T2, recombinant human LRP6-Fc chimera; test: multipoint competitive ELISA, IgG1; varied competitor printed as recombinant human LRP6-Fc chimera, while paragraph 283 says 'the recombinant antigen'
Description: as §1
Table 3 reports the IC50 of LRP5 antibodies as determined by competitive ELISA. The log of the recombinant human LRP6-Fc chimera concentration (x-axis) was plotted against the OD450 reading of the antibody (y-axis). The IC50 was determined by non-linear regression analysis.

Binder	binding result [1]	IC50 [2] [nM]
LRP5-A9 (antibody, V domains shown, Fab-phage in the screen) VH: EVQLVESGGGLVQPGGSLRLSCAASGFNISSYSIHWVRQAPGKGLEWVASSSYYGYTYYADSVKGRFTISADTSKNTAYLQMNSLRAEDTAVYYCARTVRGSKKPYFSGWAMDYWGQGTLVTVSS VL: DIQMTQSPSSLSASVGDRVTITCRASQSVSSAVAWYQQKPGKAPKLLIYSASSLYSGVPSRFSGSRSGTDFTLTISSLQPEDFATYYCQQVHYSPYSLITFGQGTKVEIKR	binds	–
LRP5-D9 (antibody, V domains shown, Fab-phage in the screen) VH: EVQLVESGGGLVQPGGSLRLSCAASGFNISYSYIHWVRQAPGKGLEWVASIYSSYGYTYYADSVKGRFTISADTSKNTAYLQMNSLRAEDTAVYYCARHYSYFFYAMDYWGQGTLVTVSS VL: DIQMTQSPSSLSASVGDRVTITCRASQSVSSAVAWYQQKPGKAPKLLIYSASSLYSGVPSRFSGSRSGTDFTLTISSLQPEDFATYYCQQASYSPITFGQGTKVEIKR	binds	25.1
LRP5-G9 (antibody, V domains shown, Fab-phage in the screen) VH: EVQLVESGGGLVQPGGSLRLSCAASGFNISYSYIHWVRQAPGKGLEWVASIYSSYGYTYYADSVKGRFTISADTSKNTAYLQMNSLRAEDTAVYYCARWGAYHSSGYGMDYWGQGTLVTVSS VL: DIQMTQSPSSLSASVGDRVTITCRASQSVSSAVAWYQQKPGKAPKLLIYSASSLYSGVPSRFSGSRSGTDFTLTISSLQPEDFATYYCQQSSSSPITFGQGTKVEIKR	–	26.4
LRP5-H9 (antibody, V domains shown, Fab-phage in the screen) VH: EVQLVESGGGLVQPGGSLRLSCAASGFNIYSYYIHWVRQAPGKGLEWVASIYSYYGYTYYADSVKGRFTISADTSKNTAYLQMNSLRAEDTAVYYCARSYPAMDYWGQGTLVTVSS VL: DIQMTQSPSSLSASVGDRVTITCRASQSVSSAVAWYQQKPGKAPKLLIYSASSLYSGVPSRFSGSRSGTDFTLTISSLQPEDFATYYCQQSSYSPITFGQGTKVEIKR	binds	37.5
LRP5-A7 (antibody, V domains shown, Fab-phage in the screen; also called LRP5-47) VH: EVQLVESGGGLVQPGGSLRLSCAASGFNLSYSSMHWVRQAPGKGLEWVASIYPYYGYTYYADSVKGRFTISADTSKNTAYLQMNSLRAEDTAVYYCARHGAMDYWGQGTLVTVSS VL: DIQMTQSPSSLSASVGDRVTITCRASQSVSSAVAWYQQKPGKAPKLLIYSASSLYSGVPSRFSGSRSGTDFTLTISSLQPEDFATYYCQQAWGWGLFTFGQGTKVEIKR	binds	4.68
LRP5-E5 (antibody, V domains shown, Fab-phage in the screen) VH: EVQLVESGGGLVQPGGSLRLSCAASGFNIYSYSIHWVRQAPGKGLEWVASIYPYSSYTSYADSVKGRFTISADTSKNTAYLQMNSLRAEDTAVYYCARYAVYFPGYYWGMDYWGQGTLVTVSS VL: DIQMTQSPSSLSASVGDRVTITCRASQSVSSAVAWYQQKPGKAPKLLIYSASSLYSGVPSRFSGSRSGTDFTLTISSLQPEDFATYYCQQYHYYYLFTFGQGTKVEIKR	binds	–
LRP5-C12 (antibody, V domains shown, Fab-phage in the screen) VH: EVQLVESGGGLVQPGGSLRLSCAASGFNFSSSSIHWVRQAPGKGLEWVASIYSSYGSTSYADSVKGRFTISADTSKNTAYLQMNSLRAEDTAVYYCARTVRGSKKPYFSGWAMDYWGQGTLVTVSS VL: DIQMTQSPSSLSASVGDRVTITCRASQSVSSAVAWYQQKPGKAPKLLIYSASSLYSGVPSRFSGSRSGTDFTLTISSLQPEDFATYYCQQFSHVSLITFGQGTKVEIKR	binds	–
LRP5-H3 (antibody, V domains shown, Fab-phage in the screen) VH: EVQLVESGGGLVQPGGSLRLSCAASGFNLYYYYIHWVRQAPGKGLEWVASISPYYGYTSYADSVKGRFTISADTSKNTAYLQMNSLRAEDTAVYYCARSGYGWYAMDYWGQGTLVTVSS VL: DIQMTQSPSSLSASVGDRVTITCRASQSVSSAVAWYQQKPGKAPKLLIYSASSLYSGVPSRFSGSRSGTDFTLTISSLQPEDFATYYCQQYWFLITFGQGTKVEIKR	binds	–
LRP5-G11 (antibody, V domains shown, Fab-phage in the screen) VH: EVQLVESGGGLVQPGGSLRLSCAASGFNISYSYIHWVRQAPGKGLEWVASIYPSYGYTYYADSVKGRFTISADTSKNTAYLQMNSLRAEDTAVYYCARAAPYYGYYYSYAMDYWGQGTLVTVSS VL: DIQMTQSPSSLSASVGDRVTITCRASQSVSSAVAWYQQKPGKAPKLLIYSASSLYSGVPSRFSGSRSGTDFTLTISSLQPEDFATYYCQQGVSLITFGQGTKVEIKR	–	25.1

Source: US20230183336A1 (MODMAB THERAPEUTICS, published 2023)
